Source: the supplement of paper PMC7877785
± gives the uncertainty stated by the source.

Experiment: self-splicing fitness, log relative to wild type (ln ratio); higher = more splicing; Tetrahymena group I intron in knt gene, E. coli kanamycin selection, DiMSum; sequences stand for … in CUCUCU…GGAGGGAAAAGUUAUCAGGCAUGCACCUGGUAGCUAGUCUUUAAACCAAUAGAUUGCAUCGGUUUAAAAGGCAAGACCGUCAAAUUGCGGGAAAGGGGUCAACAGCCGUUCAGUACCAAGUCUCAGGGGAAACUUUGAGAUGGCCUUGCAAAGGGUAUGGUAAUAAGCUGACGGACAUGGUCCUAACCACGCAGCCAAGUCCUAAGUCAACAGAUCUUCUGUUGAUAUGGAUGCAGUUCACAGACUAAAUGUCGGUCGGGGAAGAUGUAUUCUUCUCAUAAGAUAUAGUCGGACCUCUCCUUAAUGGGAGCUAGCGGAUGAAGUGAUGCAACACUGGAGCCGCUGGGAACUAAUUUGUAUGCGAAAGUAUAUUGAUUAGUUUUGGAGUACUCGUGGUCG
Procedure, shortened: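 Library with all eight P1ex-region intron nucleotides randomised, intron inside the knt kanamycin-resistance gene on pET-22b(+), in E. coli BL21(DE3). Cells grew overnight at 37°C or 30°C on LB agar with or without 25 μg/mL kanamycin (plus 100 μg/mL carbenicillin, 50 μM IPTG, 0.2% rhamnose), in six replicate transformations. Pooled colonies were amplicon-sequenced on Illumina HiSeq 2500. DiMSum fitness is the error-weighted combination of wild-type-normalised replicate fold changes, kanamycin versus none.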

Sequence | self-splicing fitness (ln) (30 °C) | self-splicing fitness (ln) (37 °C)
UGCCAGCAAUAUUACGGCCG | -0.659 ± 0.073 | -0.389 ± 0.092
UGCCAGCAAUAUUACGGUGU | -2.53 ± 0.11 | -2.7 ± 0.19
UGCCAGCAAUAUUACGGUUG | -1.94 ± 0.096 | -0.692 ± 0.11
UGCCAGCAAUAUUACGUCCG | -0.88 ± 0.073 | 0.0267 ± 0.11
UGCCAGCAAUAUUACGUGCG | -1.34 ± 0.077 | -1.13 ± 0.091
UGCCAGCAAUAUUACGUGGG | -3.88 ± 0.13 | -2.74 ± 0.14
UGCCAGCAAUAUUACGUUGU | -3.21 ± 0.12 | -2.86 ± 0.18
UGCCAGCAAUAUUACGUUUC | -4.47 ± 0.28 | -1.17 ± 0.16
UGCGAGCAAUAUUACGAGGG | -2.1 ± 0.13 | -2.3 ± 0.17
UGCGAGCAAUAUUACGCACC | -3.32 ± 0.31 | -2.72 ± 0.42
UGCGAGCAAUAUUACGCGAG | -3.16 ± 0.23 | -1.79 ± 0.25
UGCGAGCAAUAUUACGCGAU | -2.39 ± 0.42 | –
UGCGAGCAAUAUUACGCGCC | -2.45 ± 0.26 | -1.29 ± 0.27
UGCGAGCAAUAUUACGCGGU | -2.46 ± 0.17 | -2.43 ± 0.19
UGCGAGCAAUAUUACGCUGA | -2.35 ± 0.27 | -2.28 ± 0.27
UGCGAGCAAUAUUACGGCAA | -2.3 ± 0.4 | -0.0535 ± 0.27
UGCGAGCAAUAUUACGGGUA | -1.19 ± 0.18 | -0.698 ± 0.21
UGCGAGCAAUAUUACGGUGA | -2.28 ± 0.18 | -1.49 ± 0.16
UGCGAGCAAUAUUACGGUGU | -4.19 ± 0.23 | -3.16 ± 0.4
UGCGAGCAAUAUUACGUCCA | -0.227 ± 0.25 | -0.499 ± 0.29
UGCGAGCAAUAUUACGUGAG | -4.57 ± 0.36 | -2.63 ± 0.18
UGCGAGCAAUAUUACGUUGG | – | -1.27 ± 0.26
UGCUAGCAAUAUUACGAAAG | -2.06 ± 0.21 | -0.114 ± 0.19
UGCUAGCAAUAUUACGAACA | -0.29 ± 0.12 | 0.199 ± 0.13
UGCUAGCAAUAUUACGACAA | -1.15 ± 0.13 | -0.207 ± 0.14

Sequence | self-splicing fitness (ln) (30 °C) | self-splicing fitness (ln) (37 °C)
UGCUAGCAAUAUUACGACAU | -2.027 ± 0.016 | -1.05 ± 0.034
UGCUAGCAAUAUUACGACCA | 0.141 ± 0.17 | 0.148 ± 0.27
UGCUAGCAAUAUUACGACUC | -2.59 ± 0.27 | -0.141 ± 0.2
UGCUAGCAAUAUUACGAGGC | -2.55 ± 0.19 | -1.89 ± 0.34
UGCUAGCAAUAUUACGCAGC | -4.35 ± 0.36 | -2.1 ± 0.28
UGCUAGCAAUAUUACGCCGA | -2.48 ± 0.25 | -1 ± 0.19
UGCUAGCAAUAUUACGCCUU | -2.68 ± 0.23 | 0.255 ± 0.17
UGCUAGCAAUAUUACGCGUC | -3.06 ± 0.27 | -2.23 ± 0.27
UGCUAGCAAUAUUACGCUCU | -1.63 ± 0.13 | -0.156 ± 0.15
UGCUAGCAAUAUUACGCUGU | -3.58 ± 0.22 | -2.38 ± 0.27
UGCUAGCAAUAUUACGCUUU | -2.16 ± 0.14 | -2.22 ± 0.19
UGCUAGCAAUAUUACGGAGC | – | -1.42 ± 0.41
UGCUAGCAAUAUUACGGAGG | -2.23 ± 0.14 | -1.13 ± 0.13
UGCUAGCAAUAUUACGGCGC | -3.41 ± 0.37 | 1.38 ± 0.48
UGCUAGCAAUAUUACGGGGG | -0.837 ± 0.13 | -2.32 ± 0.32
UGCUAGCAAUAUUACGGGUA | -0.992 ± 0.14 | -0.151 ± 0.12
UGCUAGCAAUAUUACGGGUU | -2.39 ± 0.14 | -1.33 ± 0.14
UGCUAGCAAUAUUACGGUUG | -0.971 ± 0.06 | -0.318 ± 0.082
UGCUAGCAAUAUUACGGUUU | -1.27 ± 0.062 | -0.216 ± 0.073
UGCUAGCAAUAUUACGUCAG | -2.36 ± 0.12 | -1.33 ± 0.12
UGCUAGCAAUAUUACGUUAC | – | -1.91 ± 0.23
UGCUAGCAAUAUUACGUUGC | -3.53 ± 0.34 | -1.77 ± 0.23
UGCUAGCAAUAUUACGUUUU | -3.29 ± 0.18 | -1.94 ± 0.14
UGGAAGCAAUAUUACGAAAA | -1.93 ± 0.22 | -1.13 ± 0.19
UGGAAGCAAUAUUACGAAUG | -0.927 ± 0.11 | -0.211 ± 0.12

Sequence | self-splicing fitness (ln) (30 °C) | self-splicing fitness (ln) (37 °C)
UGGAAGCAAUAUUACGACUA | -0.154 ± 0.074 | 0.331 ± 0.11
UGGAAGCAAUAUUACGAUCG | 0.288 ± 0.14 | 0.382 ± 0.15
UGGAAGCAAUAUUACGCCUG | -0.491 ± 0.083 | -0.15 ± 0.099
UGGAAGCAAUAUUACGCGAG | -1.26 ± 0.19 | 0.167 ± 0.16
UGGAAGCAAUAUUACGCGCA | -0.534 ± 0.13 | 0.365 ± 0.13
UGGAAGCAAUAUUACGCGUA | -1.21 ± 0.11 | -0.131 ± 0.15
UGGAAGCAAUAUUACGCUAC | -4.5 ± 0.34 | -2.24 ± 0.21
UGGAAGCAAUAUUACGCUCA | -0.562 ± 0.11 | -0.00417 ± 0.13
UGGAAGCAAUAUUACGGCCU | -0.816 ± 0.11 | -0.639 ± 0.13
UGGAAGCAAUAUUACGGCGG | -0.545 ± 0.08 | -0.13 ± 0.1
UGGAAGCAAUAUUACGGCUA | -0.499 ± 0.14 | -0.0289 ± 0.23
UGGAAGCAAUAUUACGGUGU | -1.46 ± 0.14 | -3.33 ± 0.27
UGGAAGCAAUAUUACGUAGA | -2.06 ± 0.13 | -1.01 ± 0.13
UGGAAGCAAUAUUACGUCAC | – | -1.54 ± 0.24
UGGAAGCAAUAUUACGUGAC | -2.76 ± 0.34 | -1.75 ± 0.4
UGGAAGCAAUAUUACGUGGU | -3.53 ± 0.49 | -2.25 ± 0.3
UGGAAGCAAUAUUACGUUCU | -3.42 ± 0.25 | -1.31 ± 0.17
UGGAAGCAAUAUUACGUUGC | -4.13 ± 0.47 | -3.11 ± 0.4
UGGAAGCAAUAUUACGUUGG | -2.69 ± 0.19 | -0.902 ± 0.14
UGGCAGCAAUAUUACGACGU | -1.84 ± 0.16 | -0.565 ± 0.2
UGGCAGCAAUAUUACGACUC | -1 ± 0.1 | -1.1 ± 0.12
UGGCAGCAAUAUUACGAUAC | -3.31 ± 0.48 | -1.99 ± 0.38
UGGCAGCAAUAUUACGAUUU | -1.66 ± 0.086 | -0.484 ± 0.1
UGGCAGCAAUAUUACGCAGA | -1.21 ± 0.14 | -0.916 ± 0.12
UGGCAGCAAUAUUACGCAGG | -2.79 ± 0.16 | -1.23 ± 0.12

Sequence | self-splicing fitness (ln) (30 °C) | self-splicing fitness (ln) (37 °C)
UGGCAGCAAUAUUACGCCAG | -1.46 ± 0.14 | -1.59 ± 0.21
UGGCAGCAAUAUUACGCCGG | -1.64 ± 0.14 | -0.838 ± 0.2
UGGCAGCAAUAUUACGGAAC | -2.89 ± 0.36 | -1.72 ± 0.21
UGGCAGCAAUAUUACGGAAG | -1.78 ± 0.13 | -0.447 ± 0.12
UGGCAGCAAUAUUACGGGUG | -0.883 ± 0.071 | -0.596 ± 0.088
UGGCAGCAAUAUUACGGUAA | -0.651 ± 0.089 | 0.0797 ± 0.093
UGGCAGCAAUAUUACGGUCU | -0.537 ± 0.066 | 0.29 ± 0.087
UGGCAGCAAUAUUACGUACG | -0.616 ± 0.077 | -0.265 ± 0.12
UGGCAGCAAUAUUACGUGUA | -1.54 ± 0.089 | -0.712 ± 0.084
UGGGAGCAAUAUUACGAAAU | -1.47 ± 0.19 | –
UGGGAGCAAUAUUACGAACG | -1.07 ± 0.1 | -0.54 ± 0.16
UGGGAGCAAUAUUACGAGAU | -1.91 ± 0.27 | -2.04 ± 0.47
UGGGAGCAAUAUUACGAUCC | -1.41 ± 0.39 | –
UGGGAGCAAUAUUACGAUGA | – | -1.63 ± 0.42
UGGGAGCAAUAUUACGCCCA | -1.61 ± 0.4 | –
UGGGAGCAAUAUUACGCCUU | -2.66 ± 0.26 | -1.66 ± 0.31
UGGGAGCAAUAUUACGCGGC | -2.57 ± 0.34 | -1.35 ± 0.28
UGGGAGCAAUAUUACGCUCC | – | -2.7 ± 0.44
UGGGAGCAAUAUUACGCUGU | – | -1.2 ± 0.41
UGGGAGCAAUAUUACGGCAA | -2.97 ± 0.47 | -0.863 ± 0.32
UGGGAGCAAUAUUACGGGAG | -2.83 ± 0.25 | -2.94 ± 0.43
UGGGAGCAAUAUUACGGGGC | -2.62 ± 0.48 | -2.07 ± 0.34
UGGGAGCAAUAUUACGGUAA | -2.32 ± 0.45 | –
UGGGAGCAAUAUUACGGUCA | -0.375 ± 0.12 | -0.291 ± 0.14
